{"source": "paper PMC8056383", "about": "“Entropic Inhibition: How the Activity of a AAA+ Machine Is Modulated by Its Substrate-Binding Domain” (ACS Chemical Biology, 2021)", "proteins": {"B1": {"name": "Thermus thermophilus ClpB, full-length (natural protein)", "chain": "not shown", "notes": "ClpB, Thermus thermophilus, full-length protein (NTD, NBD1, MD, NBD2); also called TT ClpB; TT; ClpB; source: cloned into a pET28b vector, expressed and purified (protocol in the Supplementary Methods)"}, "B2": {"name": "ΔNClpB, Thermus thermophilus ClpB lacking the N-terminal domain (domain or fragment)", "chain": "not shown", "notes": "ClpB, Thermus thermophilus, variant beginning at residue 141 (Val); lacks the first 140 residues; In the smFRET experiments one S288C-S631C protomer labelled with AF488/AF594 sat in hexamers of unlabelled ΔNClpB; also called NTD-truncated ClpB; truncated variant; source: cloned into a pET28b vector, expressed and purified (protocol in the Supplementary Methods)"}, "B3": {"name": "23C-176C double-cysteine mutant of full-length ClpB, labelled with Alexa Fluor 488 and Alexa Fluor 594 (natural protein)", "chain": "not shown", "modifications": "Alexa Fluor 488 and Alexa Fluor 594 (C5 maleimide) on the cysteines at 23 and 176", "notes": "The ATPase assay used the fully labelled protein. smFRET and FLCS used one labelled protomer in hexamers of WT ClpB; source: cloned into a pET28b vector, expressed and purified (protocol in the Supplementary Methods)"}}, "key": {"[1]": {"molecular_target": "the molecule itself", "assay": "native gel or EMSA; native polyacrylamide gel electrophoresis; assembly of ClpB and ΔNClpB (Figure S2)"}, "[2]": {"molecular_target": "the molecule itself", "assay": "native gel or EMSA; native gel electrophoresis in the presence of 2 mM ATP; assembly of the 23C-176C construct (Figure S1)"}}, "data": [{"protein": "B1", "values": [{"measurement": "binding result", "setting": "[1]", "result": "binds"}]}, {"protein": "B2", "values": [{"measurement": "binding result", "setting": "[1]", "result": "binds"}]}, {"protein": "B3", "values": [{"measurement": "binding result", "setting": "[2]", "result": "binds"}]}]}
